Results as given in patent US20250009876A1 (H LUNDBECK A S, published 2025).
Where a chain is given by its changes, count along the chain named.

T1: PACAP38 (Pituitary Adenylate Cyclase-Activating Polypeptide, 38 amino acids) (human, not fully specified; the C-terminal lysine is amidated)
T1 peptide: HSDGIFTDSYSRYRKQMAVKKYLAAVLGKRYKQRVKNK

T2: PACAP27 (Pituitary Adenylate Cyclase-Activating Polypeptide, 27 amino acids) (human, the C-terminal leucine is amidated)
T2 construct: also called human PACAP27
T2 peptide: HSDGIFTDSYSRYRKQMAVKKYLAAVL

T3: PAC1-R on PAC1-R-expressing PC-12 cells (UniProt P32215 20-523)
T3 construct: whole, on cells; also called PAC1 receptor
T3 sequence (looked up): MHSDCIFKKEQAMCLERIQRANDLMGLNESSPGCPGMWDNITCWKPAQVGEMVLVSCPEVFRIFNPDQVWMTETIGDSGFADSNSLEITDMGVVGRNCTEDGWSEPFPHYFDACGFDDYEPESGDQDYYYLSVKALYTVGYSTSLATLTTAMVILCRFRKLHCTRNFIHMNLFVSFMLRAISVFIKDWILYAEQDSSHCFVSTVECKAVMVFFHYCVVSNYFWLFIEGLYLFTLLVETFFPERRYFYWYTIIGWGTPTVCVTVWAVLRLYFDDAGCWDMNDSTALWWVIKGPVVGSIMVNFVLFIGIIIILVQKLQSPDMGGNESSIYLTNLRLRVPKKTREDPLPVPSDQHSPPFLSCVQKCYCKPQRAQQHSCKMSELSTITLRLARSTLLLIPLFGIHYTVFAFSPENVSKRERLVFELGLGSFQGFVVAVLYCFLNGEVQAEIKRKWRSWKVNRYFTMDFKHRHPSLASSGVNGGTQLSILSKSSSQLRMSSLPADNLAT

B1: Ab10.H (antibody, human IgG1, kappa, N297A)
heavy: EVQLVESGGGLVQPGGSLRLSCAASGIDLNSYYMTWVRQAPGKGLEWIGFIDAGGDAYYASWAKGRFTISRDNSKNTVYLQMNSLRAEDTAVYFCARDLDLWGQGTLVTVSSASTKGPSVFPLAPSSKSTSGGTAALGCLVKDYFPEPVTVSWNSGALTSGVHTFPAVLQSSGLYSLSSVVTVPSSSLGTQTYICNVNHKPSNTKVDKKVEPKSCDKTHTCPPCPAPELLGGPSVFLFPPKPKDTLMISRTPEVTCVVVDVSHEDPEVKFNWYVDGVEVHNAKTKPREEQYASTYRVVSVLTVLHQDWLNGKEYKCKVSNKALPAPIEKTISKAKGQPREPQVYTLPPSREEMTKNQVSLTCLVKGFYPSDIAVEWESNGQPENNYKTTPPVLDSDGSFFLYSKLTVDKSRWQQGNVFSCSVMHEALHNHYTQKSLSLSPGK
light: DAQLTQSPSTLSASVGDRVTITCQSSESVYGNYLAWFQQKPGKAPKFLIYEASKLESGVPSRFSGSGSGTEFTLTISSLQPDDFATYYCAGGDISEGVAFGGGTKVEIKRTVAAPSVFIFPPSDEQLKSGTASVVCLLNNFYPREAKVQWKVDNALQSGNSQESVTEQDSKDSTYSLSSTLTLSKADYEKHKVYACEVTHQGLSSPVTKSFNRGEC
notes: Full-length humanized variant of Ab10
B2: Ab10 (antibody, human IgG1, kappa, N297A, V domains shown)
VH: QSVEESGGRLVTPGTPLTLTCTVSGIDLNSYYMTWVRQAPGKGLEWIGFIDAGGDAYYASWAKGRFTISKTSTTVDLKITSPTTEDTATYFCARDLDLWGQGTLVTVSS
VL: AAVLTQTPSPVSAAVGGTVTINCQSSESVYGNYLAWFQQKPGQPPKLLIYEASKLESGVPSRFSGSGSGTQFTLTISDLQCDDAATYYCAGGDISEGVAFGGGTEVVVKR
notes: Full-length anti-PACAP antibody; rabbit variable regions cloned onto human constant regions (rabbit/human chimeric), expressed in HEK-293
B3: Ab20 (antibody, human IgG1, kappa, N297A, V domains shown)
VH: B2 VH with N29S, T34S, A52T, G53D, D55S, S60T, Q101P
VL: B2 VL with T20S, N22S, G31S, L47F, E56A, S64K, L79V, A85G, D93Y, I94S
notes: Full-length anti-PACAP antibody; rabbit/human chimeric

Molecular target: T1, PACAP38 (Pituitary Adenylate …)
Assay: cell-based or functional assay

Row | Inhibition of 1 nM PACAP38-induced human VPAC2-R mediated cAMP increase IC50 (pM) | Binder
1 | 988 | B1
2 | 188 | B2
3 | 14600 | B3

Molecular target: T1, PACAP38 (Pituitary Adenylate …)
Assay: SPR (ProteOn XPR36), antibody amine-coupled, peptide analyte, 1:1 Langmuir fit
In short: (§1)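 Antibody amine-coupled to GLC or GLM chips; peptide antigen injected at 1.23 nM to 100 nM, association 2-4 min, dissociation 3-120 min. Sensorgrams fitted to a 1:1 Langmuir model; surfaces regenerated with 0.85% phosphoric acid between analytes.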

Row | Kd [pM] | koff [s⁻¹] | kon [M⁻¹ s⁻¹] | Binder
4 | ≤ 29 | ≤ 1e-05 | 340000 | B1
5 | 75 | 2e-05 | 260000 | B2
6 | 210 | 2.4e-05 | 120000 | B3

Molecular target: T2, PACAP27 (Pituitary Adenylate …)
Assay: as above
In short: as §1

Row | Kd [pM] | koff [s⁻¹] | kon [M⁻¹ s⁻¹] | Binder
7 | 33 | 1.8e-05 | 530000 | B1
8 | ≤ 10 | ≤ 1e-05 | 1e+06 | B2
9 | 70 | 2.2e-05 | 320000 | B3

Molecular target: T1, PACAP38 (Pituitary Adenylate …)
Assay: cell-based or functional assay
Remark: another data set of the same source

Row | Inhibition of 0.1 nM PACAP38-induced PAC1-R mediated cAMP increase IC50 (pM) | Binder
10 | 163 | B1
11 | 180 | B2
12 | 368 | B3

Molecular target: T2, PACAP27 (Pituitary Adenylate …)
Assay: cell-based or functional assay

Row | Inhibition of 0.1 nM PACAP27-induced PAC1-R mediated cAMP increase IC50 (pM) | Binder
13 | 84 | B1
14 | 227 | B2
15 | 188 | B3

Each binder was assayed against T3, PAC1-R on PAC1-R-expressing PC-12 cells (assay: cell surface binding assay (DELFIA TRF): antibody pre-incubated with PACAP38, added to PAC1-R-expressing PC-12 cells, detected with Eu anti-human IgG).

Row | binding result | Binder
16 | no binding (tested: about 70 nM) | B1
17 | no binding (tested: about 5000 nM) | B2
18 | no binding (tested: about 500 nM) | B3

Molecular target: T1, PACAP38 (Pituitary Adenylate …)
Assay: cell-based or functional assay
Remark: another data set of the same source

Row | Inhibition of 5 nM PACAP38-induced human VPAC1-R mediated cAMP increase IC50 (pM) | Binder
19 | 1340 | B1
20 | 649 | B2
21 | 3890 | B3
